{"source": "paper PMC3505971", "about": "(Nucleic Acids Research, 2012)", "key": {"Sa Hfq [1]": {"target": "T1, Sa Hfq (Staphylococcus aureus, UniProt A0A0H3JV59 1-77)", "assay": "fluorescence polarization"}, "Ec Hfq": {"target": "Ec Hfq (Escherichia coli, UniProt P0A6X3 1-102)", "assay": "fluorescence polarization"}, "Sa Hfq(K33A)": {"target": "Sa Hfq(K33A) (Staphylococcus aureus, UniProt A0A0H3JV59 1-77, K33A)", "assay": "fluorescence polarization"}, "crystal structure": {"target": "the molecule itself", "assay": "crystal structure"}, "Sa Hfq [2]": {"target": "T1, Sa Hfq", "assay": "fluorescence polarization", "remark": "listed apart in the source"}}}
{"binder": "AAAAAAAAAAAAAAAAAAAAAAAAAAA (ssRNA)", "note": "[A27]", "values": [{"measurement": "Kd", "setting": "Sa Hfq [1]", "result": "109 ± 13", "unit": "nM"}, {"measurement": "Kd", "setting": "Ec Hfq", "result": "0.85 ± 0.08", "unit": "nM"}]}
{"binder": "AAAAAAAAAAAAAAAA (ssRNA)", "note": "[A16]", "values": [{"measurement": "Kd", "setting": "Sa Hfq [1]", "result": "4.2 ± 0.5", "unit": "nM"}, {"measurement": "Kd", "setting": "Ec Hfq", "result": "0.4 ± 0.5", "unit": "nM"}]}
{"binder": "AAAAAAA (ssRNA)", "note": "[(AA)3A = A7]", "values": [{"measurement": "Kd", "setting": "Sa Hfq [1]", "result": "19.5 ± 6.4", "unit": "nM"}, {"measurement": "Kd", "setting": "Sa Hfq(K33A)", "result": "406 ± 112", "unit": "nM"}]}
{"binder": "Staphylococcus aureus Hfq (natural protein) MIANENIQDKALENFKANQTEVTVFFLNGFQMKGVIEEYDKYVVSLNSQGKQHLIYKHAISTYTVETEGQASTESEE", "values": [{"measurement": "stoichiometry N", "setting": "crystal structure", "result": 6}]}
{"binder": "AUAUAUA (ssRNA)", "note": "[(AU)3A]", "values": [{"measurement": "Kd", "setting": "Sa Hfq [1]", "result": "2.7 ± 2.3", "unit": "nM"}, {"measurement": "Kd", "setting": "Sa Hfq(K33A)", "result": "309 ± 40.2", "unit": "nM"}]}
{"binder": "AAAAAAG (ssRNA)", "note": "[A6G]", "values": [{"measurement": "binding result", "setting": "Sa Hfq [2]", "result": "binds"}]}
{"binder": "GGAGGAGGAGGAGGAGGAGGAGGAGGA (ssRNA)", "note": "[(GGA)9]", "values": [{"measurement": "Kd", "setting": "Sa Hfq [1]", "result": 350, "unit": "nM"}]}
{"binder": "AUUUUUG (ssRNA)", "note": "[AU5G]", "values": [{"measurement": "binding result", "setting": "Sa Hfq [2]", "result": "binds"}]}
{"binder": "UUUUUU (ssRNA)", "note": "[U6]", "values": [{"measurement": "Kd", "setting": "Sa Hfq [1]", "result": "69.8 ± 7", "unit": "nM"}, {"measurement": "Kd", "setting": "Sa Hfq(K33A)", "result": "72.7 ± 21.9", "unit": "nM"}]}
{"binder": "GGAGGA (ssRNA)", "note": "[(GGA)2]", "values": [{"measurement": "Kd", "setting": "Sa Hfq [1]", "result": 450, "unit": "nM"}]}
{"binder": "AGAGAGA (ssRNA)", "note": "[(AG)3A]", "values": [{"measurement": "Kd", "setting": "Sa Hfq [1]", "result": "3.5 ± 0.3", "unit": "nM"}, {"measurement": "Kd", "setting": "Sa Hfq(K33A)", "result": "11.9 ± 3", "unit": "nM"}]}
{"binder": "ACACACA (ssRNA)", "note": "[(AC)3A]", "values": [{"measurement": "Kd", "setting": "Sa Hfq [1]", "result": "5.8 ± 7.3", "unit": "nM"}]}
